Numbering of substitutions follows the chain as printed.
T1: mouse FcγRII extracellular domain, C-terminal His tag (mouse, UniProt P08101 30-210)
T1 construct: also called mFcγRII; mFcgRII
T1 sequence: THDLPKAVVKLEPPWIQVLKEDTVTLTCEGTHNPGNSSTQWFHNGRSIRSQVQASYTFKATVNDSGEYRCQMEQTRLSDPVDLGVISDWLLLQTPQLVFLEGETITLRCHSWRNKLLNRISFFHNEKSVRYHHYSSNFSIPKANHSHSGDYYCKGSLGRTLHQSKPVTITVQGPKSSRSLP

T2: mouse FcγRIII extracellular domain, C-terminal His tag (mouse, UniProt P08508 31-215)
T2 construct: also called mFcγRIII; mFcgRIII
T2 chain: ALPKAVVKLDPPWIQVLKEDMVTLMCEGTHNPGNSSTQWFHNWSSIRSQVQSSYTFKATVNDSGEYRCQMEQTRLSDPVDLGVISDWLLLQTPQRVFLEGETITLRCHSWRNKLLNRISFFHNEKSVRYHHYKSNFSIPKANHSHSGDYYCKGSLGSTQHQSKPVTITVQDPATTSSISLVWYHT

B1: H237-MB831/MRAL-k0 (antibody, mouse IgG1, kappa)
heavy: QVQLQESGPGLVKPSETLSLTCAVSGHSISHDHAWSWVRQPPGEGLEWIGFISYSGITNYNPSLQGRVTISRDNSKNTLYLQMNSLRAEDTAVYYCARSLARTTAMDYWGEGTLVTVSSAKTTPPSVYPLAPGSAAQTNSMVTLGCLVKGYFPEPVTVTWNSGSLSSGVHTFPAVLQSDLYTLSSSVTVPSSTWPSETVTCNVAHPASSTKVDKKIVPRDCGCKPCICEPNEVELVFIFPPKPKDVLTITLTPKVTCVVVDISKDDPEVQFSWFVDDVEVHTAQTQPREEQFNSTFRSVSELPIMHQDWLNGKEFKCRVNSAAFPAFIERTISKTKGRPKAPQVYTIPPPKEQMAKDKVSLTCMITDFFPEDITVEWQWNGQPAENYKNTQPIMDTDGSYFVYSKLNVQKSNWEAGNTFTCSVLHEGLHNHHTEKSLSHSPGK
light: not shown
notes: copies: 2 + 2
B2: H237-MB824/MRAL-k0 (antibody, mouse IgG1, kappa)
heavy: B1 heavy with A322D, F327Y, R330K
light: not shown
notes: copies: 2 + 2
B3: H237-MB823/MRAL-k0 (antibody, mouse IgG1, kappa)
heavy: B1 heavy with A322D, R330K
light: not shown
notes: copies: 2 + 2
B4: H237-MB826/MRAL-k0 (antibody, mouse IgG1, kappa)
heavy: B1 heavy with A323G, R330K
light: not shown
notes: copies: 2 + 2
B5: H237-MB817/MRAL-k0 (antibody, mouse IgG1, kappa)
heavy: B1 heavy with N320M, A323G, F327P, R330K
light: not shown
notes: copies: 2 + 2
B6: H237-MB835/MRAL-k0 (antibody, mouse IgG1, kappa)
heavy: B1 heavy with K264D, F327P, R330K
light: not shown
notes: copies: 2 + 2
B7: H237-MB814/MRAL-k0 (antibody, mouse IgG1, kappa)
heavy: B1 heavy with N320D, F327Y, R330K
light: not shown
notes: copies: 2 + 2
B8: H237-MB809/MRAL-k0 (antibody, mouse IgG1, kappa)
heavy: B1 heavy with Q291L, R330K
light: not shown
notes: copies: 2 + 2
B9: H237-MB818/MRAL-k0 (antibody, mouse IgG1, kappa)
heavy: B1 heavy with N320M, R330K
light: not shown
notes: copies: 2 + 2
B10: H237-MB820/MRAL-k0 (antibody, mouse IgG1, kappa)
heavy: B1 heavy with N320M, F327P, E329Y, R330K
light: not shown
notes: copies: 2 + 2
B11: H237-MB825/MRAL-k0 (antibody, mouse IgG1, kappa)
heavy: B1 heavy with A322D, F327P, E329Y, R330K
light: not shown
notes: copies: 2 + 2
B12: H237-MB828/MRAL-k0 (antibody, mouse IgG1, kappa)
heavy: B1 heavy with A323G, F327P, E329Y, R330K
light: not shown
notes: copies: 2 + 2
B13: H237-MB849/MRAL-k0 (antibody, mouse IgG1, kappa)
heavy: B1 heavy with A322D, A323G, F327Y, R330K
light: not shown
notes: copies: 2 + 2
B14: H237-MB850/MRAL-k0 (antibody, mouse IgG1, kappa)
heavy: B1 heavy with A322D, A323G, F327P, E329Y, R330K
light: not shown
notes: copies: 2 + 2
B15: H237-MB821/MRAL-k0 (antibody, mouse IgG1, kappa)
heavy: B1 heavy with N320M, F327P
light: not shown
notes: copies: 2 + 2
B16: H237-MB819/MRAL-k0 (antibody, mouse IgG1, kappa)
heavy: B1 heavy with N320M, F327Y, R330K
light: not shown
notes: copies: 2 + 2
B17: H237-MB834/MRAL-k0 (antibody, mouse IgG1, kappa)
heavy: B1 heavy with F327P, E329Y
light: not shown
notes: copies: 2 + 2

target: T1, mouse FcγRII extracellular domain, …; assay: SPR (Biacore T200), antibody captured on Protein L, mFcγR analyte

Row | Kd [nM] | relative mFcγRII-binding activity (mIgG1 = 1) | Binder
1 | 9.4 | 22.3 fold vs H237-mIgG1/MRAL-k0 | B1
2 | 7.51 | 28 fold vs H237-mIgG1/MRAL-k0 | B2
3 | 8.39 | 25 fold vs H237-mIgG1/MRAL-k0 | B3
4 | 11.4 | 18.5 fold vs H237-mIgG1/MRAL-k0 | B4
5 | 7.38 | 28.5 fold vs H237-mIgG1/MRAL-k0 | B5
6 | 8 | 26.3 fold vs H237-mIgG1/MRAL-k0 | B6
7 | 11.7 | 18 fold vs H237-mIgG1/MRAL-k0 | B7
8 | 11.1 | 19 fold vs H237-mIgG1/MRAL-k0 | B8
9 | 13.5 | 15.6 fold vs H237-mIgG1/MRAL-k0 | B9
10 | 10.8 | 19.5 fold vs H237-mIgG1/MRAL-k0 | B10
11 | 7.38 | 28.4 fold vs H237-mIgG1/MRAL-k0 | B11
12 | 7.4 | 28.4 fold vs H237-mIgG1/MRAL-k0 | B12
13 | 6.68 | 31.4 fold vs H237-mIgG1/MRAL-k0 | B13
14 | 4.81 | 43.7 fold vs H237-mIgG1/MRAL-k0 | B14
15 | 8.6 | 24.4 fold vs H237-mIgG1/MRAL-k0 | B15
16 | 11.6 | 18.1 fold vs H237-mIgG1/MRAL-k0 | B16
17 | 12.4 | 17 fold vs H237-mIgG1/MRAL-k0 | B17

Target: T2, mouse FcγRIII extracellular domain, …
Assay: as above

Row | Kd [nM] | relative mFcγRIII-binding activity (mIgG1 = 1) | Binder
18 | 716 | 0.4 fold vs H237-mIgG1/MRAL-k0 | B1
19 | 500 | 0.6 fold vs H237-mIgG1/MRAL-k0 | B2
20 | 575 | 0.5 fold vs H237-mIgG1/MRAL-k0 | B3
21 | 829 | 0.3 fold vs H237-mIgG1/MRAL-k0 | B4
22 | 539 | 0.5 fold vs H237-mIgG1/MRAL-k0 | B5
23 | 401 | 0.7 fold vs H237-mIgG1/MRAL-k0 | B6
24 | 826 | 0.3 fold vs H237-mIgG1/MRAL-k0 | B7
25 | 638 | 0.4 fold vs H237-mIgG1/MRAL-k0 | B8
26 | 979 | 0.3 fold vs H237-mIgG1/MRAL-k0 | B9
27 | 854 | 0.3 fold vs H237-mIgG1/MRAL-k0 | B10
28 | 564 | 0.5 fold vs H237-mIgG1/MRAL-k0 | B11
29 | 571 | 0.5 fold vs H237-mIgG1/MRAL-k0 | B12
30 | 436 | 0.6 fold vs H237-mIgG1/MRAL-k0 | B13
31 | 358 | 0.8 fold vs H237-mIgG1/MRAL-k0 | B14
32 | 625 | 0.5 fold vs H237-mIgG1/MRAL-k0 | B15
33 | 872 | 0.3 fold vs H237-mIgG1/MRAL-k0 | B16
34 | 976 | 0.3 fold vs H237-mIgG1/MRAL-k0 | B17

Source: patent US20150203577A1 (Chugai, published 2015)
